Our source for the partitioning ratio (without peptide), partitioning ratio with 100 µM GWW peptide and partitioning ratio values is paper PMC10412687.

Numbering of substitutions follows the chain as printed. Names may count otherwise.

For test [1], the target named is RNase E C-terminal domain (residues 451-898) with C-terminal eYFP (Caulobacter crescentus). The experiment in a line: partitioning of a fluorescent client into condensates (fluorescence microscopy), peptide competition; PNPase incubated with peptide (GWW or scrambled, 0 to 200 µM) before adding RNase E to form droplets; 20 mM Tris pH 7.5, 1 mM MgCl2, 10 mM Na2HPO4 pH 7.5, 100 mM NaCl (120 mM NaCl in Fig. S2), 10% PEG 8000 (Figs. S2, S3).

Test [2] shares this target. The test is described as follows: partitioning of a fluorescent client into condensates (fluorescence microscopy); RNase E CTD condensates as scaffold, PNPase-mCherry variants as clients; 20 mM Tris pH 7.5, 20 mM MgCl2, 4 mM Na2HPO4 pH 7.5, 70 mM NaCl, 0.5 mM DTT; 30 min at room temperature; partitioning ratio (Fig. 3).
For test [3] the target is unchanged. The test is described as follows: partitioning of a fluorescent client into condensates (fluorescence microscopy); 20 µM RNase E CTD-eYFP (or ∆PNP-BS) condensates as scaffold, mCherry-labelled client; 20 mM Tris pH 7.5, 1 mM MgCl2, 10 mM Na2HPO4 pH 7.5, 100 mM NaCl, 10% PEG 8000; 30 min at room temperature; partitioning ratio = mean droplet signal / mean non-droplet signal (Figs. 2, S1).

As to “PNPase-mCherry as used in the peptide competition and poly(A) recruitment microscopy (from UniProt Q9AC32 1-712) (enzyme)”, in test [1], the partitioning ratio (without peptide) is 2.8 and the partitioning ratio with 100 µM GWW peptide was 1.7.

B1: PNPase-S439A/S440A/S441A-mCherry (PNPase active site mutant) (enzyme)
chain: MFDIKRKTIEWGGKTLVLETGRIARQADGAVLATMGETVVLATAVFAKSQKPGQDFFPLTVNYQEKTFAAGKIPGGFFKREGRPSEKETLVSRLIDRPIRPLFVKGFKNEVQVVVTVLQHDLENDPDILGMVAASAALCLSGAPFMGPIGAARVGWVDGAYVLNPTLDEMKESKMDLVVAGTADAVMMVESEIQELSEEIVLGGVNFAHQQMQAVIDAIIDLAEHAAKEPFAFEPEDTDAIKAKMKDLVGADIAAAYKIQKKQDRYEAVGAAKKKAIAALGLSDENPTGYDPLKLGAIFKELEADVVRRGILDTGLRIDGRDVKTVRPILGEVGILPRTHGSALFTRGETQAIVVATLGTGDDEQFIDALEGTYKESFLLHYNFPPYSVGETGRMGSPGRREIGHGKLAWRALRPMLPTKEDFPYTIRLVSEITESNGAAAMATVCGSSLAMMDAGVPLVRPVSGIAMGLILEQDGFAVLSDILGDEDHLGDMDFKVAGTSEGLTSLQMDIKIAGITPAIMEQALAQAKEGRAHILGEMNKAMDAPRADVGDFAPKIETINIPTDKIREVIGSGGKVIREIVATTGAKVDINDDGVVKVSASDGAKIKAAIDWIKSITDEAEVGKIYDGKVVKVVDFGAFVNFFGAKDGLVHVSQISNERVAKPSDVLKEGQMVKVKLLGFDDRGKTKLSMKVVDQETGEDLSKKEAAAEEA
On to B1, for which the partitioning ratio turned out to be 4.4 in test [2] and 5.7 in test [3].

B2: PNPase-V104A/E224A/F233A-mCherry (enzyme)
chain: B1 chain with V104A, E224A, F233A, A439S, A440S, A441S
Consider B2, for which, in test [2], the partitioning ratio was found to be 1.
